Assay results published in US20040229298A1.
Ends that are not written are not given here.

Assays:
[1] = biological target: GST-DLG2 PDZ domain 3 (human); experiment: Matrix/G assay ELISA, E6 peptide titrated on GST-PDZ
[2] = biological target: GST-DLG3 PDZ domains 1-2 (human), Q92796; experiment: as above
[3] = biological target: GST-MAGI1 PDZ domain 2 (human); experiment: as above
[4] = biological target: GST-PSD95 PDZ domain 2 (human); experiment: as above
[5] = biological target: GST-PSD95 PDZ domains 1-3 (human), P78352; experiment: as above
[6] = biological target: GST-SAST1 PDZ domain (human), Q9Y2H9; experiment: as above
[7] = biological target: GST-SAST2 PDZ domain 1 (human); experiment: as above
[8] = biological target: GST-SIP1 PDZ domain 1 (human); experiment: as above
[9] = biological target: GST-MAGI1 PDZ domain 2 (human); experiment: G assay ELISA, E6 PL peptide titrated on constant GST-PDZ

Sequence of GST-SAST1 PDZ domain (human), Q9Y2H9 (Q9Y2H9 other isoform, or with tags, fused parts or gaps limits assumed): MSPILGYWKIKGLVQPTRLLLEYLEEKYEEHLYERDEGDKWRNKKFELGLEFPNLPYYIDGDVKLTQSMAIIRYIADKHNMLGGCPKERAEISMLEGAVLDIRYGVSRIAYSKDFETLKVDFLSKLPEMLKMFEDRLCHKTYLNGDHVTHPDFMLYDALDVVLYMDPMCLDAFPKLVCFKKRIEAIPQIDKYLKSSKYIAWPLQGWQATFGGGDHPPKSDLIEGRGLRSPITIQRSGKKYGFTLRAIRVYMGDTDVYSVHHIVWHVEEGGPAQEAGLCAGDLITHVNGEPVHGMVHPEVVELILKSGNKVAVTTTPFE
Sequence of GST-DLG3 PDZ domains 1-2 (human), Q92796 (Q92796 other isoform, or with tags, fused parts or gaps limits assumed): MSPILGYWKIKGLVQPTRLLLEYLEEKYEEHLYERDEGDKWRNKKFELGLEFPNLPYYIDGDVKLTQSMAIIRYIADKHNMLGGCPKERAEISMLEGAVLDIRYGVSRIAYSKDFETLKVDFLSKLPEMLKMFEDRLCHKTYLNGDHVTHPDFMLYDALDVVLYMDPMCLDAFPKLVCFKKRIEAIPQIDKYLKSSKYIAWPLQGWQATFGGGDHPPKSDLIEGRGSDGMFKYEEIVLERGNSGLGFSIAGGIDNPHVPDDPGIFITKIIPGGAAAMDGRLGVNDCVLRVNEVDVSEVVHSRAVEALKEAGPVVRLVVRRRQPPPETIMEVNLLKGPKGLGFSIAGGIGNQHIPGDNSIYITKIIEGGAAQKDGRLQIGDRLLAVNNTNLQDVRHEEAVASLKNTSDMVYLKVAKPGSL

B1: HPV16 E6 C-terminal PDZ ligand peptide (20 mer, biotinylated), P03126 139-158 (peptide)
peptide: WTGRCMSCCRSSRTRRETQL
modifications: not fully specified; cysteine pairing not given here
[1]
  EC50: 1600 nM
[2]
  EC50: 3800 nM
[3]
  EC50: 56 nM
[4]
  EC50: 6800 nM
[5]
  EC50: 1000 nM
[6]
  EC50: 580 nM
[7]
  EC50: 1200 nM
[8]
  EC50: 7500 nM
[9]
  EC50: 56 nM
